In PMC9701394, “Modified exosomal SIRPα variants alleviate white matter injury after intracerebral hemorrhage via microglia/macrophages” (Biomaterials Research, 2022):

Target: T1, biotinylated CD47 (UniProt Q08722 19-141, biotin (by BirA ligase, on the Avi tag))
T1 construct: CD47, IgSF domain; the SPR methods say only 'biotinylated CD47'. 'Purified as described above' would imply a His tag and a cleaved GST; also called CD47 IgSF domain
Assay: SPR; biotinylated CD47 (Rmax ~150 RU) captured on Biacore SA sensor chip at 25 °C; serial dilutions of SIRPα in HBS-P buffer; regeneration with 2 mol/L MgCl2; Langmuir binding model, Biacore T200
Conditions: both partners purified

T1 sequence (Q08722 19-141): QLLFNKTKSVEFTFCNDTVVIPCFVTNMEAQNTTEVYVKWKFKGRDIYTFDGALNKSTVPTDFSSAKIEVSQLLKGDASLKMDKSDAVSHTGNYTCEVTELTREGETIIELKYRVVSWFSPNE

Kd: 365 nM
dissociation half-life (t1/2): 2.4 s
B1: wild-type SIRPα (SIRPα WT), soluble monomer (domain or fragment, human, UniProt P78324 31-148, looked up)
chain: EEELQVIQPDKSVLVAAGETATLRCTATSLIPVGPIQWFRGAGPGRELIYNQKEGHFPRVTTVSDLTKRNNMDFSIRIGNITPADAGTYYCVKFRKGSPDDVEFKSGAGTELSVRAKP
notes: signal regulatory protein α (SIRPα), human, N-terminal V-set Ig domain; also called wild-type human SIRPα; SIRPα WT monomer; source: E. coli BL-21(DE3), purified (Ni-NTA; GST removed with HRV 3C protease); not shown: GST, N-terminal, cleaved
